Measured values as given in patent publication US20140322233A1 (Takeda / Millennium, published 2014).

T1: mouse GCC (mouse, UniProt Q3UWA6 20-433, limits assumed)
T1 construct: Construct used for the cross-reactivity test is not described
T1 sequence (looked up): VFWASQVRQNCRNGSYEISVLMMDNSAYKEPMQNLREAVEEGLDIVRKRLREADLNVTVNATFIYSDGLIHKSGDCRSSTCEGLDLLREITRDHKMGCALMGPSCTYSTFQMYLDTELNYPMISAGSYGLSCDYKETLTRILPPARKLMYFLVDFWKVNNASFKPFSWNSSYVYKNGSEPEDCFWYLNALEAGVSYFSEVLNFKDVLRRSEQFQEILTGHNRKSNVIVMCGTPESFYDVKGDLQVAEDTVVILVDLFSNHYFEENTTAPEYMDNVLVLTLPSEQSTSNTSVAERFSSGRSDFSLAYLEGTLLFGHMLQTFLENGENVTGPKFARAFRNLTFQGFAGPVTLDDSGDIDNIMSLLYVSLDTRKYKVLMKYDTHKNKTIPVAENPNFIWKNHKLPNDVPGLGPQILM

T2: rat GCC (rat, UniProt P23897 23-429, limits assumed)
T2 construct: Construct used for the cross-reactivity test is not described
T2 sequence (looked up): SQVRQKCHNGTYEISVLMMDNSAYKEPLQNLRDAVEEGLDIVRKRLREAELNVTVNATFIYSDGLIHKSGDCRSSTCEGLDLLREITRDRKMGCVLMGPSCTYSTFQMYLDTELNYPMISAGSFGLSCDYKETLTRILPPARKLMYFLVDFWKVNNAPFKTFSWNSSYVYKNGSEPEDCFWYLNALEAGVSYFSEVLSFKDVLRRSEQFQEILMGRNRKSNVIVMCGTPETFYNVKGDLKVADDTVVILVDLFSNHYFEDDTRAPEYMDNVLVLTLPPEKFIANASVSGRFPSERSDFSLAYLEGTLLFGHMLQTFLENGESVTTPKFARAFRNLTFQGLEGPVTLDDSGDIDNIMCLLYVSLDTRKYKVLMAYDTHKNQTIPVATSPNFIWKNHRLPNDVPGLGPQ

B1: mAb 5F9 (antibody, V domains shown)
VH: QVQLQQWGAGLLKPSETLSLTCAVFGGSFSGYYWSWIRQPPGKGLEWIGEINHRGNTNDNPSLKSRVTISVDTSKNQFALKLSSVTAADTAVYYCARERGYTYGNFDHWGQGTLVTVSS
VL: EIVMTQSPATLSVSPGERATLSCRASQSVSRNLAWYQQKPGQAPRLLIYGASTRATGIPARFSGSGSGTEFTLTIGSLQSEDFAVYYCQQYKTWPRTFGQGTNVEIK
notes: Human; hybridoma product is IgG2, kappa; also called 46.5F9.8.2; Prep A 5F9
B2: mAb Abx-338 (antibody, IgG1, V domains shown)
VH: QVQLQESGPGLVKPSETLSLTCTVSGGSIRSYYWSWIRQPAGKGLEWIGRIYISGRTTFNPSLKSRVTISVDTSKNQFSLKLSSVTAADTAVYFCARDRYYGYLDYWGQGTLVTVSS
VL: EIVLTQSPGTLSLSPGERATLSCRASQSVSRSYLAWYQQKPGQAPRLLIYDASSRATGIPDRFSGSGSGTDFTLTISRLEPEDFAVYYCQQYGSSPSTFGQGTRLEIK
B3: mAb 3G1 (antibody, IgG1, V domains shown)
VH: QVQLKESGPGLVAPSQSLSITCTVSGFSLSRNAISWVRQPPGKGLEWLGVIWTGGGTNYNSALKSRLSIRKENSKSQVFLKMNSLQTEDTARYFCARSGYDGFDYWGQGTLVTVSA
VL: QIVLTQSPAIMSASPGEKVTMTCSASSSVNYMHWYQQKSGTSPKRWIYDTSKLASGVPARFSGSGSGTSYSLTITSMEAEDAATYYCQQWSGNPYTFGGGTKLEIK

Key:
[1] = target: T3, human GCC, full length with myc tag (293-GCC#2 cells) (human, UniProt P25092 24-1073); assay: cell-based or functional assay
mouse GCC = target: T1, mouse GCC; assay: not described (FIG. 4: ELISA on GCC orthologs)
rat GCC = target: T2, rat GCC; assay: not described (FIG. 4: ELISA on GCC orthologs)
[2] = target: T3, human GCC, full length with myc tag …; assay: indirect immunofluorescence flow cytometry, 293 GCC #2 cells;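 further: cells exposed to the test antibodies for 1 h on ice before flow cytometric readout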
TOK107-hIg = target: T4, TOK107-hIg (human); assay: ELISA against TOK107-hIg
T4 construct: Expressed in HEK293 cells; Fc mutated at the CH1 cysteine and at lysine 235 and glycine 237 to alanine; also called hGCC-ECD/hIgG1 Fc; TOK107-hIgG

[3] = target: T5, human guanylyl cyclase C (GCC), full length (human, UniProt P25092 24-1073); assay: FACS with GCC-expressing cells (cell line not given)
T5 construct: Full length GCC on transfected HT-29 (clones #2, #5, #18) and CT26 (#2.5, #32) cells and endogenous GCC on T84 cells; also called hGCC; STAR

[4] = target: T5, human guanylyl cyclase C (GCC), full …; assay: FACS with GCC-expressing cells (cell line not given); FACS EC50 on GCC-expressing cells

T3 sequence (P25092 24-1073): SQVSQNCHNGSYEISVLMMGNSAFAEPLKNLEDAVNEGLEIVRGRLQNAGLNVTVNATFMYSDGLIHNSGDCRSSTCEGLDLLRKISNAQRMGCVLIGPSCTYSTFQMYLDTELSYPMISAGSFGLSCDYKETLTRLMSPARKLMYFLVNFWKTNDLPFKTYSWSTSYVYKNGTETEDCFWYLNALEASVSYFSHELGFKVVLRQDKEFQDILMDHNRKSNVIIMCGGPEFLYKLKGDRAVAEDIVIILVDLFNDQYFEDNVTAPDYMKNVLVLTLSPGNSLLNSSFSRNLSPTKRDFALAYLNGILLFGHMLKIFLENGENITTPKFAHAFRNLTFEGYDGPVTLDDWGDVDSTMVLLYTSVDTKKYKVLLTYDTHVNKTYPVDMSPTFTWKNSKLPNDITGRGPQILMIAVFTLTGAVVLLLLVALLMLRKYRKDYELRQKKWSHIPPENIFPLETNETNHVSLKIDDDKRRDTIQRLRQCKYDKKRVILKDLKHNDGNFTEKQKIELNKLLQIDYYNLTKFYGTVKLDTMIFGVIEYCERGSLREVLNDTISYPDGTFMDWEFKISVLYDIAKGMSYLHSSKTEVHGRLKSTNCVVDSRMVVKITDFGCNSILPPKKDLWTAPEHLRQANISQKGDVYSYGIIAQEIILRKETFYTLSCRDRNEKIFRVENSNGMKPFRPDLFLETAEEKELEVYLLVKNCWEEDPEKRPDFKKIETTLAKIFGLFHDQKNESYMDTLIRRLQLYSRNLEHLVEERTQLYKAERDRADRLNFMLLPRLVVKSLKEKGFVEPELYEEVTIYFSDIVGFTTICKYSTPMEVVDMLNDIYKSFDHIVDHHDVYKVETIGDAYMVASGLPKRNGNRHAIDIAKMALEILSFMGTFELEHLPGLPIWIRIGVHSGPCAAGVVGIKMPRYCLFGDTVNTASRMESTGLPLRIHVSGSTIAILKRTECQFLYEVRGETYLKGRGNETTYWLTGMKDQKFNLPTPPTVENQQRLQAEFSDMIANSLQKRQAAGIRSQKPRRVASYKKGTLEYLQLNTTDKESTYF
T4 sequence (chain, as listed by the source limits assumed): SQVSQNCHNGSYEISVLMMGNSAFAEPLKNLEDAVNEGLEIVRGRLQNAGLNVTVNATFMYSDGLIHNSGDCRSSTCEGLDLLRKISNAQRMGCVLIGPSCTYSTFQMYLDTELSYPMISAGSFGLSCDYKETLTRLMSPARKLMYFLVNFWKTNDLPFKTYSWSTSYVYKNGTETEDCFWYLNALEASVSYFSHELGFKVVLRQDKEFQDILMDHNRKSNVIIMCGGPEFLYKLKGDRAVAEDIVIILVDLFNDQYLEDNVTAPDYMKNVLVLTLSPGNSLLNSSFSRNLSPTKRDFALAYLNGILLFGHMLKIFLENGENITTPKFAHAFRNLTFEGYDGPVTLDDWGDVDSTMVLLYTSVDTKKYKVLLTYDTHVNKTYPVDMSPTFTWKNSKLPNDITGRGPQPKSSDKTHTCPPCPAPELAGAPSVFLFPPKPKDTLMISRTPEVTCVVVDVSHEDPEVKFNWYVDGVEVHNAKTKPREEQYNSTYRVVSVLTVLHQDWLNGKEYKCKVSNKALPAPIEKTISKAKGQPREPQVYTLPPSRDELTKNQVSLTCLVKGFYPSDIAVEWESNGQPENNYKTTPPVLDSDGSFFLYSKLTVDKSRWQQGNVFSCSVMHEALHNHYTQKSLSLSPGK
T5 sequence (P25092 24-1073 limits assumed): as the sequence (P25092 24-1073) above

Binder | LD50, indirect cytotoxicity with DM1-conjugated mouse anti-human IgG, 293-GCC#2 cells, WST after 4 days [1] [pM] | binding result (mouse GCC) | binding result (rat GCC) | MFI at 0.001 µg/ml [2] | MFI at 0.004 µg/ml [2] | MFI at 0.016 µg/ml [2] | MFI at 0.063 µg/ml [2] | MFI at 0.25 µg/ml [2] | MFI at 1 µg/ml [2] | EC50 (TOK107-hIg) [nM] | EC50 [3] [nM] | EC50 [4] [nM]
B1 | 26 | no binding | no binding | 500 | 937 | 2460 | 6620 | 7820 | 8030 | – | – | –
B2 | 267 | – | – | – | – | – | – | – | – | 0.0049 | 90 | –
B3 | – | – | – | – | – | – | – | – | – | 22.8 | – | 0.58
